Experimental data as given in PMC8786796.

Tests used:
[1] = target: TLR5 (endogenous, on Jurkat JE6-1 NF-κB::eGFP reporter cells) (human (endogenous in Jurkat JE6-1)) (UniProt O60602)
[2] = target: TLR5 (endogenous, on Jurkat JE6-1 NF-κB::eGFP reporter cells) (human (endogenous in Jurkat JE6-1)) (UniProt O60602); remark: listed apart in the source

UniProt O60602, sequence (O60602 21-858): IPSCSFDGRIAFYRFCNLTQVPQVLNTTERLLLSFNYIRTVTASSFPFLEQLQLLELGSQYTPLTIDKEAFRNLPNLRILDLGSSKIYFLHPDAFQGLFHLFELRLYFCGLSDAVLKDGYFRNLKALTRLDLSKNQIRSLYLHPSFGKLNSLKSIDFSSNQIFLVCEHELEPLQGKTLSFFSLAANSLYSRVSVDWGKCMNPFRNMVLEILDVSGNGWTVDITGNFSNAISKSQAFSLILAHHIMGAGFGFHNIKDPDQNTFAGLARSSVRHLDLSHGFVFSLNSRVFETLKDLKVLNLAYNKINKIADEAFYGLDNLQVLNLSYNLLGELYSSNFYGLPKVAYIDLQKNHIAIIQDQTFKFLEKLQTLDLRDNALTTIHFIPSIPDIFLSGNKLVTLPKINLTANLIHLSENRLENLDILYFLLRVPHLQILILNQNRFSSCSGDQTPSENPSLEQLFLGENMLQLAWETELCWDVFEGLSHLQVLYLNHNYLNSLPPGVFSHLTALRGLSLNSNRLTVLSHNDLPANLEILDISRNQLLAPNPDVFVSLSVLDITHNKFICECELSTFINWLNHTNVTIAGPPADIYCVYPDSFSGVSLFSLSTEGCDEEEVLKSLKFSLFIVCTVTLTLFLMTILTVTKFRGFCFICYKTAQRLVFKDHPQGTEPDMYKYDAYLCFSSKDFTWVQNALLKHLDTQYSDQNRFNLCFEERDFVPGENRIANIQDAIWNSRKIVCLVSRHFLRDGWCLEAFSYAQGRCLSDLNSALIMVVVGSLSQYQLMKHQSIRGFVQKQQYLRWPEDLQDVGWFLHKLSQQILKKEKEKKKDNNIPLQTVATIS

## flagellin purified from S. typhimurium (Fla-ST standard and Fla-ST ultrapure) (from UniProt P06179 1-495) (ligand)
[1]
  limit of detection (concentration giving a 1.5-fold increase of eGFP) in JE6-1 TLR5 NF-κB::eGFP reporter cells, flagellin titrated: 10 pg/mL
[2]
  NF-κB::eGFP expression in Jurkat JE6-1 reporter cells (endogenous TLR5), flagellin titrated, 24 h, flow cytometry; lowest concentration giving detectable eGFP: < 100 pg/mL
